The values that follow come from US20220017623A1, “TREATMENT OF CANCER USING A CEA CD3 BISPECIFIC ANTIBODY AND A WNT SIGNALING INHIBITOR” (Hoffmann-La Roche Inc., priority 2019, published 2022).

Like-named read-outs stand apart in the source and are kept apart here.

The test system of test [1] is patient derived colorectal cancer organoids (PDOs). The test is described as follows: allogeneic CD8 T cell co-culture assay with patient derived colorectal cancer organoids, GFP confluence growth assessment. Particulars: 20 nM. It counts as cell-based, human. The method, then:
In order to assess the sensitivity of patient-derived colorectal cancer organoids (PDOs) to cibisatamab immunotherapy, eight patient derived colorectal cancer organoid lines with various cell surface CEA expression levels were generated and treated with cibisatamab (20 nM) or an untargeted control antibody (20 nM) during 10 days of co-culture with allogeneic CD8 T cells. CD8 T cells were isolated from allogeneic healthy donor peripheral blood mononuclear cells (PBMCs) by magnetic bead sorting and expanded in vitro with IL2 and CD3/CD28 beads for 7-14 days. GFP-tagged CRC PDO cells were then seeded in 96 well plates, T cells were added the following day and the co-cultures were imaged every 2-3 days on an automated 96 well plate fluorescence microscope. […] Co-culture with CD8 T cells without any antibody was included as a further control to enable the identification of alloreactive donor T cells.
Eight PDO lines were tested: three CEAhi PDOs (i.e. containing predominantly CEAhi cells; CRC-01, CRC-05, CRC-07), four PDOs with mixed CEA expression (i.e. containing large subpopulations of both CEAhi and CEAlo cells; CRC-02, CRC-03, CRC-04, CRC-08), and one CEAlo PDO (i.e. containing predominantly CEAlo cells; CRC-06).
PDOs were harvested with TrypLE Express and neutralised with DMEM/F12 Ham medium (Sigma Aldrich) with 10% FBS. Cells were filtered through a 70 μm filter, counted and resuspended in phenol-red free RPMI medium (Thermo Fisher) supplemented with 10% FBS (Biosera), 1× Glutamax and 100 units penicillin-streptomycin. On day 0, 5000 tumor cells per well of a 96 well-plate (Corning Special Optics Microplate) were plated. CD8 T cells were added on day 1 at the indicated effector to target (E:T) ratios with 20 nM of cibisatamab or 20 nM of the untargeted negative control antibody DP47-TCB (both provided by Roche). Tumor cells without CD8 T cells and without antibody were also included as controls. All conditions were plated in triplicates and at least 3 different healthy donors were tested on each of the 8 PDOs.
The GFP confluence was quantified every 48h-72h over a 10-day period using the GFP confluence application on the Celigo Imaging Cytometer (Nexcelom Bioscience). GFP confluence analysis was able to track the growth of GFP positive PDO cells over multiple timepoints without erroneously counting the T cells in the co-culture. […] The main advantage of confluence analysis over measuring spheroid diameters is the ability to track even the growth of PDOs showing highly variable shapes. Growth curves were generated with CD8 T cells from three different healthy blood donors. […]

Test [2] relates to CEA expressing metastatic CRCs. Particulars: cited from earlier work.

B1: cibisatamab (antibody, chains of the INN, looked up, V domains shown)
VH: QVQLVQSGAEVKKPGASVKVSCKASGYTFTEFGMNWVRQAPGQGLEWMGWINTKTGEATYVEEFKGRVTFTTDTSTSTAYMELRSLRSDDTAVYYCARWDFAYYVEAMDYWGQGTTVTVSS
VL: DIQMTQSPSSLSASVGDRVTITCKASAAVGTYVAWYQQKPGKAPKLLIYSASYRKRGVPSRFSGSGSGTDFTLTISSLQPEDFATYYCHQYYTYPLFTFGQGTKLEIK
VH2: QVQLVQSGAEVKKPGASVKVSCKASGYTFTEFGMNWVRQAPGQGLEWMGWINTKTGEATYVEEFKGRVTFTTDTSTSTAYMELRSLRSDDTAVYYCARWDFAYYVEAMDYWGQGTTVTVSS
VL2: QAVVTQEPSLTVSPGGTVTLTCGSSTGAVTTSNYANWVQEKPGQAFRGLIGGTNKRAPGTPARFSGSLLGGKAALTLSGAQPEDEAEYYCALWYSNLWVFGGGTKLTVL
On to B1, for which the growth inhibition in test [1] (CEAhi PDOs (CRC-01, CRC-05, CRC-07), CD8 T cells E:T 2:1, 7-10 days, versus DP47-TCB control) is recorded as 89-100%. Also, the “reduction of the cancer cell growth rate compared to controls” value in test [1] (four PDOs with mixed CEA expression (CRC-02, CRC-03, CRC-04, CRC-08), E:T 2:1) is recorded as “only a moderate reduction of the cancer cell growth rate”. For the same molecule, the “sensitivity to treatment with CD8 T cells and antibody” value is “showed resistance” in test [1] (predominantly CEAlo PDO CRC-06, E:T 2:1) and “highly sensitive” in test [1] (three CEAhi PDOs, E:T 2:1). For the same molecule, the “patients with radiological shrinkage (antitumor activity)” value in test [2] (in combination with PD-L1-inhibiting antibodies, 5/10 patients) is 50%; in test [2] (monotherapy, metastatic CRC after at least two prior chemotherapy regimens, 4/36 patients) it was 11%.
